Source: paper PMC12847411

Key:
Assay in all cases: BLI
Sotrovimab = target: Sotrovimab
MW05 = target: MW05
AZD8895-275 = target: AZD8895-275
AZD8895-450 = target: AZD8895-450
REGN10933 = target: REGN10933
AZD8895-25 = target: AZD8895-25
AZD8895 = target: AZD8895
REGN10987 = target: REGN10987
Sequence of REGN10987 (heavy, as listed by the source, chain 1 of 2): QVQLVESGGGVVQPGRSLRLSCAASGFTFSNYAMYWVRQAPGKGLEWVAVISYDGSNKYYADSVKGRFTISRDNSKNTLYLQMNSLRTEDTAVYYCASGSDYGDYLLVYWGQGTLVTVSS
Sequence of REGN10987 (light, as listed by the source, chain 2 of 2): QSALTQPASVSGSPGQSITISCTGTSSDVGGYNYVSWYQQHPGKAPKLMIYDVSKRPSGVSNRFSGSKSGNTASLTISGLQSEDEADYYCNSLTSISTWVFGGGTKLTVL

Sequence of MW05 (light, as listed by the source): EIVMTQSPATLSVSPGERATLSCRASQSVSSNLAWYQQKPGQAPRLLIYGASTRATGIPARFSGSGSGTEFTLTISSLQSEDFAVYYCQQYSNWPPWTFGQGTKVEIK
Sequence of AZD8895-450 (heavy, as listed by the source, chain 1 of 2): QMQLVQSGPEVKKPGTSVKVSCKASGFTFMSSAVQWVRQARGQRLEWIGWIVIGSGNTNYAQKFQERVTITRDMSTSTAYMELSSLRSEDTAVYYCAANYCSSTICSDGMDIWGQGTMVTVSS
Sequence of AZD8895-450 (light, as listed by the source, chain 2 of 2): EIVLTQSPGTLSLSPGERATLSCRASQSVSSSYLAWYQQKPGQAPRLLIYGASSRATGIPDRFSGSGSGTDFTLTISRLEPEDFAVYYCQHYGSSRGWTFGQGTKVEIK
Sequence of AZD8895 (heavy, as listed by the source, chain 1 of 2): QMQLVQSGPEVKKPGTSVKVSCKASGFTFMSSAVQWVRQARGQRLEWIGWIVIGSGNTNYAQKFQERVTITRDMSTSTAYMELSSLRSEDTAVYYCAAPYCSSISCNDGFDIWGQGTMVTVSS
Sequence of AZD8895-275 (heavy, as listed by the source, chain 1 of 2): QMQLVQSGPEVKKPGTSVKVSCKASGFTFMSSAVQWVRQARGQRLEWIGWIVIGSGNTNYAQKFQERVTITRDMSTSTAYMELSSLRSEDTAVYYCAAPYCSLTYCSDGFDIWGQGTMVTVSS
Sequence of AZD8895-25 (heavy, as listed by the source, chain 1 of 2): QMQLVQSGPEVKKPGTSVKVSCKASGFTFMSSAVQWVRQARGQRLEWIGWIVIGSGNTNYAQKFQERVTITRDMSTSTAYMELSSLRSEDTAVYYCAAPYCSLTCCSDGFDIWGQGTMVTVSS
Sequence of REGN10933 (heavy, as listed by the source, chain 1 of 2): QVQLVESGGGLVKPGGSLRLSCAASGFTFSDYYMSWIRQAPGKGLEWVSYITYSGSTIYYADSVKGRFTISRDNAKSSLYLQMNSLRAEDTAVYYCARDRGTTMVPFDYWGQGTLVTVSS
Sequence of REGN10933 (light, as listed by the source, chain 2 of 2): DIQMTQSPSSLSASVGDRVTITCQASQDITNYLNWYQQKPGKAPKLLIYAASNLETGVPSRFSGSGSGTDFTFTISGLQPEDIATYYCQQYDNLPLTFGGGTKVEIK

For “SARS-CoV-2 spike RBD protein (Sino Biological, 40592-V08H) (from UniProt P0DTC2) (domain or fragment)”, the Kd (Sotrovimab) was 1.42 nM, the Kd (MW05) was 1.89 nM and the Kd (AZD8895-275) was 5.17 nM. For the same substance, the Kd (AZD8895-450) was 7.33 nM, the Kd (REGN10933) was 6.7 nM and the Kd (AZD8895-25) was 4.81 nM. It also gave a Kd (AZD8895) of 6.71 nM and a Kd (REGN10987) of 5.92 nM.
